Reference: the supplement of paper PMC12764529
± gives the half width of the 95% confidence interval.

Assay: folding stability dG unfold (combined trypsin and chymotrypsin); higher = more stable
Summary of the method: (§1)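 K50 was inferred by Bayesian fitting of sequencing counts obtained after protease digestion of designed mini-proteins. Unfolding free energy was derived by comparison with a sequence-predicted unfolded-state K50 and a shared folded-state K50, for each protease or both combined. The mini-proteins were under 80 residues, had no cysteine, were carried in a PA-tagged cDNA display construct, and were kept only if AlphaFold2 dimer inter-PAE exceeded 15.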

Sequence	folding stability dG unfold
SAGGSAGGSKKPIDIKIEDVDHRRNPNGQPYMKIRIEIPGKPLLSYTFPPGASVEDFLKNILSSAGGSAGGS [r20_115_TrROS]	1.09 ± 0.057 kcal/mol
SAGGSAGGSMTAEELAKAFPNLPKEEITEIRVEKNEDGTITVTITVKNKNGEKIEIKVEIKLESAGGSAGGS [r12_1050_TrROS_Hall]	2.03 ± 0.1 kcal/mol
SAGGKKKVKITKITSIDKKNGVITLEIEDPKTKKKYKIKAKVVKLKNGKKLLVIEIEVNGKKIKIVFKSAGG [r13_993_TrROS_Hall]	3.81 ± 0.47 kcal/mol
SAGGMRIEVEIEEVRELPDGRLVFRVRARIELKVRVLERDENGRWRELPEEEVTVELEVEVEVFLPPSAGGS [r16_693_TrROS_Hall]	4.75 ± 0.3 kcal/mol
SAGGSAMFMFELTIPPNAKIPPGYKLKIRFPNGKEEEYKFNNGPIKIWFYMDPDGNIQLDLEVEKKSAGGSA [r15_992_TrROS]	4.35 ± 0.15 kcal/mol
SFLSPGDKFKFPNGNNYRIENFDISYDPGNNNPMIEIELVPLPPPKPEDENKKDPDGKTKTENKYKYKGPSA [r9_914_TrROS]	0.968 ± 0.45 kcal/mol
SAGGSAGGSAGGSSIEELRRSPEVEVEVSTEKLPNGKTVTTVTLTPPDGVPTTIVLPEGSAGGSAGGSAGGS [r4_70_JUSTAS]	0.978 ± 0.14 kcal/mol
SAGGSALKIHPDEKVLVKLKNTKKPVEAKVVKVEKLPNNKWVFYVEVKLNGKKVKIPVDGKDVVVASAGGSA [r15_62_TrMRF]	2.45 ± 0.23 kcal/mol
SAGGSAGGPEVYPVPGLTPEQFRELVERHGGRLRVVLPGGEEVELDFTRDSRPIPGKPAVVVFGSAGGSAGG [r6_303_TrMRF]	0.12 ± 0.048 kcal/mol
SAGGSAGGSNRLVFRFGGYYYVVEIKPPNGKEETIMMPPDDIDDLPKNWKVEVEPIKPGQPIPSAGGSAGGS [r12_419_TrROS]	1.18 ± 0.2 kcal/mol
SAGGSAMTPEEVREKAEEIAETLAAEAREAGYEVEVKAKVEGLPEKYARVTVELNGARVEVLIPLDSAGGSA [r15_432_TrMRF]	0.125 ± 0.09 kcal/mol
SWMLRIRNPDDGKTREIKLPNMPPTVQKDGWISITNPQFLNQLLDALPPDYKIDEVEFMPGGMHTMKVKPSA [r9_997_TrROS]	0.019 ± 0.12 kcal/mol
SMETVELRVRVRVFNPETGELVEEIEVTVTLPKGMTLEEALRRAREALREALERLLRPPEPVLDEDGRLVSA [r9_454_TrROS_Hall]	3.99 ± 0.14 kcal/mol
SAGVKELAEEIADEFQKPGWQVEVEVDPGDGTITVQMRMPDYQYEIEIKITPENGKPQVDIKWRPPNDSAGG [r19_2_TrROS]	1.56 ± 0.31 kcal/mol
SKEKYKKPIKFTVKIEEGPVTENGEKYIKIEITYPGGYTATIIITPKKIEIKSNVPNPEKVKELVKKLVKSA [r9_662_TrMRF]	2.5 ± 0.28 kcal/mol
SAGGSAGGEGWRPLNVWIPFPDPKARLDEIVDMISKLFGWPIKIKITEVIPGDPDMIRVTIYVPSAGGSAGG [r6_211_TrROS]	3.47 ± 0.091 kcal/mol
SAGGSAGGSAGGSEEILDVKVDEKENTLVITTKLPSGGTTTKEIKVENVPPFPESNVKVSAGGSAGGSAGGS [r4_372_JUSTAS]	0.0453 ± 0.14 kcal/mol
SAGGSAGGGLDPVPIKRVTVLRNPETDEYVVLIENEDGLPYAFPFDSLEDAERFVRRLVEEGYLSAGGSAGG [r6_65_TrMRF]	4.967 ± 0.047 kcal/mol
SAGGSAGGSAGGMGINVTVSEEVSVLPDPSVVRVTTTTKTPDGTTTVTEEVIPGPEELESAGGSAGGSAGGS [r10_1221_JUSTAS]	1.2 ± 0.075 kcal/mol
SAIKGMPLEELAKHIENEMRKMHPNVKIKVEIVDVPPDYLVIEVEITVRHPNPGGQQVEFPMTIVIDLDSAG [r14_187_TrROS]	1.81 ± 0.21 kcal/mol
SAGGSAGGSMTIKITLPEEGEKVKITIFVNGEEKEIEIEPGEEITIELPENVKNAIIIIEKEPSAGGSAGGS [r12_729_TrROS_Hall]	2.54 ± 0.11 kcal/mol

Assay: folding stability dG unfold from chymotrypsin proteolysis; higher = more stable
Summary of the method: as §1

Sequence	folding stability dG unfold
SAGEVAPEEIRKIAEEIAKKLGLKNVKVEVSRDEETGEITVKIEVDIPESKKEKKEELEKAIKEKLGLKSAG [r5_9_JUSTAS]	2.96 ± 0.094 kcal/mol
SAGGSAGGSAMRPVSFTLVSTETAPNGVKVTKYVLTEPTGPAREYTSTNLLVEGSSLTDLSSAGGSAGGSAG [r3_261_JUSTAS]	0.239 ± 0.1 kcal/mol
SMVLELPAKDLKLEVNEDGTLKLTIKLENGKKVTFTFPAGDKITKIEVLSPDKVKIIFEKKPLKDLKTFLSA [r9_501_TrMRF]	1.76 ± 0.074 kcal/mol
SAGGSATAEELAEEIAREIAEAFPAEVVRVEVEEVDEDRVVFRMEVRVPLPDGSTVRAPFTVVVPASAGGSA [r15_276_TrMRF]	0.778 ± 0.14 kcal/mol
SAGGSAGGEKEYIIKIKLEMPNGREMKHWFPFKTVEQIKDQLRKLPDPNYKIDDVEIMPADELKSAGGSAGG [r6_297_TrROS]	0.594 ± 0.15 kcal/mol
SAGGSAGGSESKITILVLDEETQELYLIEVTLKYNPETGELETEMKIEKITLKPGEKLDLKDLSAGGSAGGS [r12_700_TrROS_Hall]	3.28 ± 0.13 kcal/mol
SAGKKTITVPLKDLKKVLEELKKKYPNIKKVKIYVNGKEYEIKVGEKVKITEVIKNENGEEFVKIEIYKSAG [r5_130_TrROS_Hall]	3.41 ± 0.082 kcal/mol
SAGGKKYKVKVVSVEYDKETKEVTVKVEFEDNKVVVEKKVKVKLPPVKIEFSEEDLKEGKVEIKIEFSAGGS [r16_809_TrROS_Hall]	2.63 ± 0.049 kcal/mol
SAGGSAGGSMEIPANIPIEEFAALIKKKGNFEVKKVGPKTFVIVSKDNKKPLVVKFDAKPGLDSAGGSAGGS [r20_236_TrMRF]	0.261 ± 0.15 kcal/mol
SAGGSAGGSAGGKIVKIEFDKETKEIKITLPNGKKITISKEDLKNMKIEIKVYPKKKKKKSAGGSAGGSAGG [r7_98_TrROS_Hall]	2.45 ± 0.1 kcal/mol
SAGKARIVEYDEESGTITIEVDGKTIEIELAPGETAEITLEENEDGTLTLTITVNGKTLTLTIPLDDLKSAG [r5_500_TrROS_Hall]	3.47 ± 0.12 kcal/mol
SAGGSAGGSATIYIIMPPDDPIPPNMPIRLPDGKPVRIDVEPVPLEEDGGPIFRIEVEPGATSAGGSAGGSA [r18_476_TrROS]	0.0617 ± 0.21 kcal/mol
SAGGSAGGSAYWRIKIFYPNNGREVTIHVPGSADDILDEAKPQFGYPPDNIKKIKIEPMDNSAGGSAGGSAG [r3_79_TrROS]	0.783 ± 0.35 kcal/mol
SAGGSAGGSAKELLKNIEKVEIIKNKKTNKYTIRIKNKNGKVYEFEFKSLEEALKKAGIKPSAGGSAGGSAG [r3_36_TrROS_Hall]	3.19 ± 0.038 kcal/mol
SAGGSAGGSAGGKLTIVIEGMSEEEVKALAEALRKAGLEIEVTVVPVEVKEPELPEEEKSAGGSAGGSAGGS [r10_361_TrROS_Hall]	2.29 ± 0.053 kcal/mol
GMSVTSYETDPNTGGPSISISSAPDPKTGLLSAPVTVYDPKTGQSKTINLTATSSEELAAKIAELLPASLLS [r1_156_JUSTAS]	0.166 ± 0.17 kcal/mol
SAGGIYRVEIEIPGGNTIEFMIPGATEEMAKEIANELAQHFNPGDIKIEVYPIPPVKVDPEDGKWKWSAGGS [r8_167_TrROS]	1.41 ± 0.1 kcal/mol
SAGGSAGGSATVKIVETKVGADGAVYTTALVTLPNGGVLIVKTKTYPSGESETSVTLTSGKEFSAGGSAGGS [r12_995_TrMRF]	1.74 ± 0.045 kcal/mol
SLKPGEPRTVEMTMIIPITPDEIAKLFGLDIPPGTYIMVEMRMRVPPNADIEMDPDIHLYDPDDNKWFPISA [r9_349_TrROS]	3.29 ± 0.086 kcal/mol
SPEKEIKVKYELPEPGSGPVKVEATFTINPKTGEVKMPVTLTRPGSSSQVNLPEELLKELKNKVLEELGKSA [r9_1136_JUSTAS]	0.795 ± 0.089 kcal/mol
SAGPKAEIINKNGKKISFSAKNIKITSYPEKGILTGIIPKKNKKIEIKVDNNKITLIVYDGGKYKEFPISAG [r5_786_TrMRF]	3.97 ± 0.22 kcal/mol

Sequence	folding stability dG unfold
SAGGSAGGSKKPIDIKIEDVDHRRNPNGQPYMKIRIEIPGKPLLSYTFPPGASVEDFLKNILSSAGGSAGGS [r20_115_TrROS]	0.96 ± 0.1 kcal/mol
SAGGSAGGSMTAEELAKAFPNLPKEEITEIRVEKNEDGTITVTITVKNKNGEKIEIKVEIKLESAGGSAGGS [r12_1050_TrROS_Hall]	2.16 ± 0.067 kcal/mol
SAGGKKKVKITKITSIDKKNGVITLEIEDPKTKKKYKIKAKVVKLKNGKKLLVIEIEVNGKKIKIVFKSAGG [r13_993_TrROS_Hall]	4.23 ± 0.16 kcal/mol
SAGGMRIEVEIEEVRELPDGRLVFRVRARIELKVRVLERDENGRWRELPEEEVTVELEVEVEVFLPPSAGGS [r16_693_TrROS_Hall]	5.08 ± 0.21 kcal/mol
SAGGSAMFMFELTIPPNAKIPPGYKLKIRFPNGKEEEYKFNNGPIKIWFYMDPDGNIQLDLEVEKKSAGGSA [r15_992_TrROS]	4.9 ± 0.14 kcal/mol
SFLSPGDKFKFPNGNNYRIENFDISYDPGNNNPMIEIELVPLPPPKPEDENKKDPDGKTKTENKYKYKGPSA [r9_914_TrROS]	0.879 ± 0.5 kcal/mol
SAGGSAGGSAGGSSIEELRRSPEVEVEVSTEKLPNGKTVTTVTLTPPDGVPTTIVLPEGSAGGSAGGSAGGS [r4_70_JUSTAS]	1.17 ± 0.041 kcal/mol
SAGGSALKIHPDEKVLVKLKNTKKPVEAKVVKVEKLPNNKWVFYVEVKLNGKKVKIPVDGKDVVVASAGGSA [r15_62_TrMRF]	2.38 ± 0.07 kcal/mol
SAGGSAGGPEVYPVPGLTPEQFRELVERHGGRLRVVLPGGEEVELDFTRDSRPIPGKPAVVVFGSAGGSAGG [r6_303_TrMRF]	-0.544 ± 0.12 kcal/mol
SAGGSAGGSNRLVFRFGGYYYVVEIKPPNGKEETIMMPPDDIDDLPKNWKVEVEPIKPGQPIPSAGGSAGGS [r12_419_TrROS]	1.46 ± 0.23 kcal/mol
SAGGSAMTPEEVREKAEEIAETLAAEAREAGYEVEVKAKVEGLPEKYARVTVELNGARVEVLIPLDSAGGSA [r15_432_TrMRF]	-0.311 ± 0.18 kcal/mol
SWMLRIRNPDDGKTREIKLPNMPPTVQKDGWISITNPQFLNQLLDALPPDYKIDEVEFMPGGMHTMKVKPSA [r9_997_TrROS]	-0.067 ± 0.32 kcal/mol
SMETVELRVRVRVFNPETGELVEEIEVTVTLPKGMTLEEALRRAREALREALERLLRPPEPVLDEDGRLVSA [r9_454_TrROS_Hall]	4.26 ± 0.19 kcal/mol
SAGVKELAEEIADEFQKPGWQVEVEVDPGDGTITVQMRMPDYQYEIEIKITPENGKPQVDIKWRPPNDSAGG [r19_2_TrROS]	1.49 ± 0.11 kcal/mol
SKEKYKKPIKFTVKIEEGPVTENGEKYIKIEITYPGGYTATIIITPKKIEIKSNVPNPEKVKELVKKLVKSA [r9_662_TrMRF]	2.81 ± 0.14 kcal/mol
SAGGSAGGEGWRPLNVWIPFPDPKARLDEIVDMISKLFGWPIKIKITEVIPGDPDMIRVTIYVPSAGGSAGG [r6_211_TrROS]	3.53 ± 0.056 kcal/mol
SAGGSAGGSAGGSEEILDVKVDEKENTLVITTKLPSGGTTTKEIKVENVPPFPESNVKVSAGGSAGGSAGGS [r4_372_JUSTAS]	0.31 ± 0.036 kcal/mol
SAGGSAGGGLDPVPIKRVTVLRNPETDEYVVLIENEDGLPYAFPFDSLEDAERFVRRLVEEGYLSAGGSAGG [r6_65_TrMRF]	5.01 ± 0.061 kcal/mol
SAGGSAGGSAGGMGINVTVSEEVSVLPDPSVVRVTTTTKTPDGTTTVTEEVIPGPEELESAGGSAGGSAGGS [r10_1221_JUSTAS]	1.47 ± 0.099 kcal/mol
SAIKGMPLEELAKHIENEMRKMHPNVKIKVEIVDVPPDYLVIEVEITVRHPNPGGQQVEFPMTIVIDLDSAG [r14_187_TrROS]	1.5 ± 0.17 kcal/mol
SAGGSAGGSMTIKITLPEEGEKVKITIFVNGEEKEIEIEPGEEITIELPENVKNAIIIIEKEPSAGGSAGGS [r12_729_TrROS_Hall]	2.48 ± 0.058 kcal/mol
